Reference: patent publication US20240261333A1 (published 2024)

T1: ARG1 (UniProt P05089 1-322)
T1 construct: also called NP_000036.2 (+1)
T1 sequence (looked up): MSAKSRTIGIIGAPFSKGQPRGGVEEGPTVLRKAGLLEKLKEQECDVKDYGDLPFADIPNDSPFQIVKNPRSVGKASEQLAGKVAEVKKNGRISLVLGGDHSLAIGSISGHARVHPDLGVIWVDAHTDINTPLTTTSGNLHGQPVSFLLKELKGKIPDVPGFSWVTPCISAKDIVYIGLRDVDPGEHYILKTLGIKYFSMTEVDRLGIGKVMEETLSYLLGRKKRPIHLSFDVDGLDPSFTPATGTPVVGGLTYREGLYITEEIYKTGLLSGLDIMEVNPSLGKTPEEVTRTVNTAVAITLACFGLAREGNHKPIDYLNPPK

T2: CDSN (UniProt Q15517 33-529, limits assumed)
T2 construct: also called NP_001255.4
T2 sequence (looked up): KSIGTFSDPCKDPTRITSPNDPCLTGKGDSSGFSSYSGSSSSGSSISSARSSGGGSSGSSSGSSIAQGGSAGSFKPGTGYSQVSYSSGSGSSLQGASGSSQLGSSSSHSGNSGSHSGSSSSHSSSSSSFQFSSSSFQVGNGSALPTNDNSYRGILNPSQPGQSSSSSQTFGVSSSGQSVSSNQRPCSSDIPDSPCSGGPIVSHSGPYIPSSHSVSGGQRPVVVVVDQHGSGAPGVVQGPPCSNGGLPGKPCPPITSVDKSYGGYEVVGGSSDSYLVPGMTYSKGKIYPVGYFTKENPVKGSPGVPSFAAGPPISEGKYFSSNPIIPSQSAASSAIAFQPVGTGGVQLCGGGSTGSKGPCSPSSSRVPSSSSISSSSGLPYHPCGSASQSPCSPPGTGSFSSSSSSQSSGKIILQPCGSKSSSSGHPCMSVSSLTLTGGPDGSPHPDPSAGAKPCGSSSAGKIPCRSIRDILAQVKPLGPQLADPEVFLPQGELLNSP

T3: POF1B (UniProt Q8WVV4-1 1-595, limits assumed)
T3 construct: also called NP_001294869.1 (+2)
T3 sequence (looked up): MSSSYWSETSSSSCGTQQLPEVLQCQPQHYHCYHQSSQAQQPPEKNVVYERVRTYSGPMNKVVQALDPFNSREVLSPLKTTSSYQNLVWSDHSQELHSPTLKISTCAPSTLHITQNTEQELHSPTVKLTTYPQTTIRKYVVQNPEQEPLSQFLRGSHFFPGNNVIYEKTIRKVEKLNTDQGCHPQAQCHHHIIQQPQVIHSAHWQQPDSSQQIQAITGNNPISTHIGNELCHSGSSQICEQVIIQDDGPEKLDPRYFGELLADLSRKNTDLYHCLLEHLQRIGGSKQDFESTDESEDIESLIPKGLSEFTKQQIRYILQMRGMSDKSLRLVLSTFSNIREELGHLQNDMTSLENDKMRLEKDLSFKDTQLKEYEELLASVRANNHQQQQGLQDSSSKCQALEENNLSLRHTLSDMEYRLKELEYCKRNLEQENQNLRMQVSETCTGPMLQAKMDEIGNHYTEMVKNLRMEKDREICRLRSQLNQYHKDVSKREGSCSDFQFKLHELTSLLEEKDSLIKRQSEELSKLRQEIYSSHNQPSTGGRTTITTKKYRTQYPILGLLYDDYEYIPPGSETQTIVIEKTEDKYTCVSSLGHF

T4: EMD (UniProt P50402 1-254)
T4 construct: also called NP_000108.1
T4 sequence (looked up): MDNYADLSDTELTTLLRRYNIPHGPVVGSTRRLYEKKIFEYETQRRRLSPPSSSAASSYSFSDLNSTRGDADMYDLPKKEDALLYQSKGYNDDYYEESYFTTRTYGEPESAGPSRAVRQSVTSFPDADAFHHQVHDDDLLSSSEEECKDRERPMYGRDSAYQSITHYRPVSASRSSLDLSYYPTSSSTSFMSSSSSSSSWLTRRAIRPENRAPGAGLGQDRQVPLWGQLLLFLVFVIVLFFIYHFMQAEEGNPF

T5: TMEM59 (UniProt Q9BXS4 36-323, limits assumed)
T5 construct: also called NP_001291972.1
T5 sequence (looked up): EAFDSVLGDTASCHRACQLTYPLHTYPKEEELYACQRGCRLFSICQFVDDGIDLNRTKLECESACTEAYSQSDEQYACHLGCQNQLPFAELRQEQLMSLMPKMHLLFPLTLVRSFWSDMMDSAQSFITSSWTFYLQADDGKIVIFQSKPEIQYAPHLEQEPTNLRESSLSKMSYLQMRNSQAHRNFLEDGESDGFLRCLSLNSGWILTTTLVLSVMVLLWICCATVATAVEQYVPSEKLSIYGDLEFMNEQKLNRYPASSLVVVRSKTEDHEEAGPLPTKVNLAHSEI

T6: CD276, endogenous in A375 melanoma cells (human, UniProt Q5ZPR3 29-534, poly-LacNAc glycosylation added by B3GNT2 (sites not given))
T6 construct: whole, on cells; On fixed A375 cells in flow cytometry; In the co-IP it comes from the lysate of these cells; also called B7H3
T6 sequence (looked up): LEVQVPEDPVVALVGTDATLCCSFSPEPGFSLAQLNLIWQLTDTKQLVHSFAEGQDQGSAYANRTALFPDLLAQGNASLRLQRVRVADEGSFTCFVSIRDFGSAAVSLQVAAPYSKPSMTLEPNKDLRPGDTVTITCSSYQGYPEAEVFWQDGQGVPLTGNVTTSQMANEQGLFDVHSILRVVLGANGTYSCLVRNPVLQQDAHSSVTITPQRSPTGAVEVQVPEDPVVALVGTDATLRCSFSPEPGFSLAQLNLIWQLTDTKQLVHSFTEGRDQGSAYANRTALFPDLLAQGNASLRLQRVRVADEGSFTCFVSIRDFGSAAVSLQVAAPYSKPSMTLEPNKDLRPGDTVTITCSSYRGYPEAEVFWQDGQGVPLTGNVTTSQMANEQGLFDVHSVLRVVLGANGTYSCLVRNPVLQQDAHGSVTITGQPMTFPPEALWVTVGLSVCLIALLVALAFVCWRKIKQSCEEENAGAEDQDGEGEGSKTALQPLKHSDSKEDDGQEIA


Assays:
RPS2 = RPS2 (UniProt P15880 2-293); test: co-IP, anti-FLAG, C-FLAG B3GNT2 cell lysate, mass spectrometry
Protocol: (§1) Cells were plated in 10-cm cell culture dishes and grown to 60-80% confluency. For each condition, two biological replicates were harvested for co-IP. Cells were washed with PBS and 4 mL of lysis buffer (20 mM HEPES, 1% Triton X-100, 150 mM NaCl, 1 mM EDTA, and 10% glycerol) containing protease inhibitor cocktail was added. Cells were scraped and lysate was incubated at 4° C. under rotary agitation for 1 h. Lysate was centrifuged at 14,000×g for 10 min at 4° C. Supernatant was transferred to a new tube and an aliquot was taken as the input. […] For Western blots, 10 μg/mL Chicken Anti-FLAG (Aves labs ET-DY100) and IgY control (R&D Systems AB-101-C) antibodies were biotinylated (Thermo Fisher Scientific 90407) and added to the respective conditions. Lysates with antibodies were incubated at 4° C. under rotary agitation overnight. For each mL of lysate, 50 μL of Pierce Protein A/G Magnetic Beads (Mass spectrometry; Thermo Fisher Scientific 88803) or Pierce Streptavidin Magnetic Beads (Western blot; Thermo Fisher Scientific 88817) was washed twice with lysis buffer. Lysates with antibodies were added to the beads and incubated at 4° C. under rotary agitation for 4 h. Beads were washed with lysis buffer 3 times and resuspended in lysis buffer for storage.
(§2) Magnetic beads were resuspended in 100 mM Tris pH 7.8, reduced, alkylated and digested with trypsin at 37° ° C. overnight. This solution was subjected to solid phase extraction to concentrate the peptides and remove unwanted reagents followed by injection onto a Shimadzu HPLC with fraction collector. Eight fractions were collected and after concentration were injected on a Waters NanoAcquity HPLC equipped with a self-packed Aeris 3 μm C18 analytical column 0.075 mm by 20 cm, (Phenomenex). Peptides were eluted using standard reverse-phase gradients. The effluent from the column was analyzed using a Thermo Orbitrap Elite mass spectrometer (nanospray configuration) operated in a data dependent manner for 54 minutes. The resulting fragmentation spectra were correlated against the known database using Proteome Discover 1.4 (Thermo Fisher Scientific).

CFL1 = molecular target: T7, CFL1 (UniProt P23528 2-166); test: as above
T7 construct: also called NP_005498.1
Protocol: as §1, §2

ARG1 = molecular target: T1, ARG1; test: as above
Protocol: as §1, §2

RPS18 = RPS18 (UniProt P62269 2-152); test: as above
Protocol: as §1, §2

RPS23 = RPS23 (UniProt P62266 2-143); test: as above
Protocol: as §1, §2

DEFA3 = molecular target: T8, DEFA3 (UniProt P59666 65-94, limits assumed); test: as above
T8 construct: also called NP_005208.1 (+1)
Protocol: as §1, §2

CDSN = molecular target: T2, CDSN; test: as above
Protocol: as §1, §2

RPS13 = RPS13 (UniProt P62277 2-151); test: as above
Protocol: as §1, §2

POF1B = molecular target: T3, POF1B; test: as above
Protocol: as §1, §2

EMD = molecular target: T4, EMD; test: as above
Protocol: as §1, §2

TMEM59 = molecular target: T5, TMEM59; test: as above
Protocol: as §1, §2

[1] = molecular target: T6, CD276, endogenous in A375 melanoma cells; test: flow cytometry of TREML2 Fc chimera on fixed A375 cells with CD276 knocked down by CRISPR

T8 sequence (P59666 65-94 limits assumed): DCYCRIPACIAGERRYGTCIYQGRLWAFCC
T7 sequence (P23528 2-166 limits assumed): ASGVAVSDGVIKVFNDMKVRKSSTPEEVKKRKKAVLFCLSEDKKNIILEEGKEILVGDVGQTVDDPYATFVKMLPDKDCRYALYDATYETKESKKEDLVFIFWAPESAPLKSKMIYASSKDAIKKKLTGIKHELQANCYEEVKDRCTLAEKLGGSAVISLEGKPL

| co-IP mass spectrometry count (RPS2) | co-IP mass spectrometry count (CFL1) | co-IP mass spectrometry count (ARG1) | co-IP mass spectrometry count (RPS18) | co-IP mass spectrometry count (RPS23) | co-IP mass spectrometry count (DEFA3) | co-IP mass spectrometry count (CDSN) | co-IP mass spectrometry count (RPS13) | co-IP mass spectrometry count (POF1B) | co-IP mass spectrometry count (EMD) | co-IP mass spectrometry count (TMEM59) | binding result [1] | Binder |
| --- | --- | --- | --- | --- | --- | --- | --- | --- | --- | --- | --- | --- |
| 24 | 6 | 6 | 18 | 16 | 8 | 0 | 4 | 0 | 2 | 0 |  | C-terminal FLAG tagged B3GNT2 (enzyme, human, UniProt Q9NY97 1-397, looked up, Bait of the co-IP; pulled down with mouse anti-FLAG from cell lysate; also called C-FLAG B3GNT2; C-term flag; not shown: FLAG tag at the C-terminus) MSVGRRRIKLLGILMMANVFIYFIMEVSKSSSQEKNGKGEVIIPKEKFWKISTPPEAYWNREQEKLNRQYNPILSMLTNQTGEAGRLSNISHLNYCEPDLRVTSVVTGFNNLPDRFKDFLLYLRCRNYSLLIDQPDKCAKKPFLLLAIKSLTPHFARRQAIRESWGQESNAGNQTVVRVFLLGQTPPEDNHPDLSDMLKFESEKHQDILMWNYRDTFFNLSLKEVLFLRWVSTSCPDTEFVFKGDDDVFVNTHHILNYLNSLSKTKAKDLFIGDVIHNAGPHRDKKLKYYIPEVVYSGLYPPYAGGGGFLYSGHLALRLYHITDQVHLYPIDDVYTGMCLQKLGLVPEKHKGFRTFDIEEKNKNNICSYVDLMLVHSRKPQEMIDIWSQLQSAHLKC |
|  |  |  |  |  |  |  |  |  |  |  | no binding (tested: 25 µg/mL) | TREML2 recombinant Fc chimera protein (R&D Systems 3259-TL-050) (Fc fusion, UniProt Q5T2D2 19-268, looked up, Bought reagent; also called TLT2; Fc part of the bought chimera not given) GPSADSVYTKVRLLEGETLSVQCSYKGYKNRVEGKVWCKIRKKKCEPGFARVWVKGPRYLLQDDAQAKVVNITMVALKLQDSGRYWCMRNTSGILYPLMGFQLDVSPAPQTERNIPFTHLDNILKSGTVTTGQAPTSGPDAPFTTGVMVFTPGLITLPRLLASTRPASKTGYSFTATSTTSQGPRRTMGSQTVTASPSNARDSSAGPESISTKSGDLSTRSPTTGLCLTSRSLLNRLPSMPSIRHQDVYS |
